Measured values as given in the supplement of paper PMC10724198.
± gives the standard deviation of the averaged measurements.

What was measured:
Assay in all cases: protein stability index of tFT-peptide fusion (C-terminal peptide) (PSI (0-1 scale)); higher = more stable (slower turnover)
[1] = test system: Saccharomyces cerevisiae; conditions: temperature: 30 C
Protocol: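 MPS profiling in S. cerevisiae of the yeast C-terminome library: the last 12 aa of each annotated ORF are fused to the C-terminus of a sfGFP-mCherry timer, after a GGGS linker. Cells are FACS-sorted into 8 mCherry/sfGFP bins and deep-sequenced. PSI runs from 0 (unstable) to 1 (stable); wild type and das1Δ backgrounds, two technical replicates each.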

[2] = test system: Saccharomyces cerevisiae; conditions: genetic background: wild type; temperature: 30 C
[3] = test system: Saccharomyces cerevisiae
Protocol: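 MPS profiling in S. cerevisiae of the tFT-X12 degron library: putative degron peptides plus stable controls, 12 aa, fused to the C-terminus of a sfGFP-mCherry timer. Cells are FACS-sorted into 8 mCherry/sfGFP bins and deep-sequenced. PSI runs from 0 (unstable) to 1 (stable). Backgrounds are wild type, das1Δ and doa10Δ at 30 °C, and wild type, das1Δ, cdc34-1 and cdc53-1 at 37 °C; 2-3 technical replicates each.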

[4] = genetic background: das1 deletion
[5] = genetic background: cdc34-1, temperature: 37 C
[6] = genetic background: cdc53-1, temperature: 37 C
[7] = genetic background: das1 deletion, temperature: 30 C
[8] = genetic background: das1 deletion, temperature: 37 C
[9] = genetic background: doa10 deletion, temperature: 30 C
[10] = genetic background: wild type, temperature: 30 C
[11] = genetic background: wild type, temperature: 37 C

Sequence | protein stability index [1, 4] | protein stability index ([1]; genetic background: wild type) | protein stability index [2] | protein stability index [3, 5] | protein stability index [3, 6] | protein stability index [3, 7] | protein stability index [3, 8] | protein stability index [3, 9] | protein stability index [3, 10] | protein stability index [3, 11]
AAELRDISQCDV [OPI8 C-terminal 12 aa] | 0.682 ± 0.024 | 0.69 ± 0.088 | – | – | – | – | – | – | – | –
AANAEILSKINK [POX1 C-terminal 12 aa] | 0.713 ± 0.017 | 0.683 ± 0.0089 | – | – | – | – | – | – | – | –
ADGNPLQALPQL [TOM40 C-terminal 12 aa] | 0.7077 ± 0.0065 | 0.666 ± 0.024 | – | – | – | – | – | – | – | –
AEETAVFTLPNV [GGA2 C-terminal 12 aa] | 0.7266 ± 0.0034 | 0.694 ± 0.0082 | – | – | – | – | – | – | – | –
AEIIDSLLEQIN [NSI1 C-terminal 12 aa] | 0.744 ± 0.019 | 0.6797 ± 0.0017 | – | – | – | – | – | – | – | –
AERFDNTEVLHL [STE13 C-terminal 12 aa] | 0.7011 ± 0.0037 | 0.689 ± 0.035 | – | – | – | – | – | – | – | –
AGADNTARLWTT [ERB1 C-terminal 12 aa] | 0.722 ± 0.014 | 0.736 ± 0.056 | – | – | – | – | – | – | – | –
AGTDKSQRCAIM [GIS4 C-terminal 12 aa] | 0.758 ± 0.018 | 0.695 ± 0.056 | – | – | – | – | – | – | – | –
AGVNSARGVLRI [SFT2 C-terminal 12 aa] | 0.6898 ± 0.0045 | 0.71 ± 0.023 | – | – | – | – | – | – | – | –
AIAPTSLLTPMP [YER087C-A C-terminal 12 aa] | 0.6937 ± 0.0021 | 0.733 ± 0.013 | – | – | – | – | – | – | – | –
AIARCALGETLL [CAR1 C-terminal 12 aa] | 0.685 ± 0.011 | 0.641 ± 0.011 | – | – | – | – | – | – | – | –
AKAQSQALVTGM [PCL6 C-terminal 12 aa] | 0.6806 ± 0.0011 | 0.685 ± 0.035 | – | – | – | – | – | – | – | –
AKKKKKRIRGFG [RRN6 C-terminal 12 aa] | 0.686 ± 0.015 | 0.671 ± 0.034 | – | – | – | – | – | – | – | –
ALHSEEASFHSL [AIM21 C-terminal 12 aa] | 0.709 ± 0.012 | 0.7 ± 0.021 | – | – | – | – | – | – | – | –
ALKLRALEKLSF [NCS6 C-terminal 12 aa] | 0.711 ± 0.014 | 0.697 ± 0.037 | – | – | – | – | – | – | – | –
ALLILVLGWFYR [SCS2 C-terminal 12 aa] | 0.405 ± 0.027 | 0.4 ± 0.0047 | – | – | – | – | – | – | – | –
ALPNWNTPYLRR [UCC1 C-terminal 12 aa] | 0.719 ± 0.015 | 0.746 ± 0.023 | – | – | – | – | – | – | – | –
ANHNNQRAGYFL [SIT4 C-terminal 12 aa] | 0.699 ± 0.02 | 0.652 ± 0.015 | – | – | – | – | – | – | – | –
ANKKARHFNNSA [VAM7 C-terminal 12 aa] | 0.687 ± 0.017 | 0.698 ± 0.019 | – | – | – | – | – | – | – | –
ANMAAYDKAIHC [LPD1 C-terminal 12 aa] | 0.681 ± 0.018 | 0.708 ± 0.033 | – | – | – | – | – | – | – | –
ANTHSSLICSKP [YBR209W C-terminal 12 aa] | 0.6854 ± 0.0039 | 0.701 ± 0.044 | – | – | – | – | – | – | – | –
APVAAGESESSL [SRO9 C-terminal 12 aa] | 0.6991 ± 0.0048 | 0.687 ± 0.007 | – | – | – | – | – | – | – | –
ARNIWRLFLQKI [YLR126C C-terminal 12 aa] | 0.705 ± 0.058 | 0.168 ± 0.0098 | – | – | – | – | – | – | – | –
ASIGSDIVNNIF [PIN3 C-terminal 12 aa] | 0.712 ± 0.032 | 0.711 ± 0.04 | – | – | – | – | – | – | – | –

Sequence | protein stability index [1, 4] | protein stability index ([1]; genetic background: wild type) | protein stability index [2] | protein stability index [3, 5] | protein stability index [3, 6] | protein stability index [3, 7] | protein stability index [3, 8] | protein stability index [3, 9] | protein stability index [3, 10] | protein stability index [3, 11]
ASLVFPKEKQNV [APC4 C-terminal 12 aa] | 0.718 ± 0.034 | 0.6902 ± 0.00072 | – | – | – | – | – | – | – | –
ATTSLNNPYGFR [TOS7 C-terminal 12 aa] | 0.675 ± 0.0069 | 0.663 ± 0.03 | – | – | – | – | – | – | – | –
AVDYILRLFGFL [COQ2 C-terminal 12 aa] | 0.72 ± 0.013 | 0.537 ± 0.019 | – | – | – | – | – | – | – | –
AVGPRQTGEECR [YER088W-B C-terminal 12 aa] | 0.695 ± 0.0098 | 0.66899 ± 0.00042 | – | – | – | – | – | – | – | –
AYFPQKYKHKYI [PRM6 C-terminal 12 aa] | 0.689 ± 0.0077 | 0.5656 ± 0.004 | – | – | – | – | – | – | – | –
CERCKSELQSVH [SET6 C-terminal 12 aa] | 0.686 ± 0.0084 | 0.663 ± 0.03 | – | – | – | – | – | – | – | –
CEVYCSKNSCAS [YBR099C C-terminal 12 aa] | 0.6895 ± 0.0012 | 0.661 ± 0.031 | – | – | – | – | – | – | – | –
CFLIGSSDTTSL [OPI6 C-terminal 12 aa] | 0.7045 ± 0.0014 | 0.691 ± 0.028 | – | – | – | – | – | – | – | –
CIAKKVKTYWNK [YIL024C C-terminal 12 aa] | 0.68219 ± 0.00014 | 0.676 ± 0.023 | – | – | – | – | – | – | – | –
WACAWRGMVKVG | – | – | 0.156 ± 0.018 | 0.202 ± 0.021 | 0.245 ± 0.0068 | 0.232 ± 0.034 | 0.38 ± 0.0041 | 0.0812 ± 0.0095 | 0.0897 ± 0.021 | 0.0811 ± 0.0041
WAIVVLVCFLRL | – | – | 0.343 ± 0.017 | 0.283 ± 0.011 | 0.299 ± 0.0052 | 0.277 ± 0.022 | 0.388 ± 0.017 | 0.332 ± 0.024 | 0.277 ± 0.019 | 0.362 ± 0.011
WCCCVSGFVWWM | – | – | 0.526 ± 0.11 | 0.563 ± 0.012 | 0.6296 ± 0.0022 | 0.491 ± 0.03 | 0.633 ± 0.021 | 0.458 ± 0.011 | 0.465 ± 0.015 | 0.602 ± 0.017
WCGSWGVWMRLG | – | – | 0.122 ± 0.031 | 0.296 ± 0.08 | 0.456 ± 0.015 | 0.534 ± 0.03 | 0.646 ± 0.02 | 0.0974 ± 0.008 | 0.0842 ± 0.0092 | 0.112 ± 0.029
WEPILLELELCV | – | – | 0.4357 ± 0.0036 | 0.498 ± 0.035 | 0.497 ± 0.026 | 0.395 ± 0.03 | 0.487 ± 0.023 | 0.327 ± 0.021 | 0.388 ± 0.013 | 0.538 ± 0.068
WFLLILFSAFAV | – | – | 0.436 ± 0.0045 | 0.433 ± 0.021 | 0.463 ± 0.036 | 0.352 ± 0.022 | 0.501 ± 0.0097 | 0.314 ± 0.0041 | 0.3465 ± 0.003 | 0.471 ± 0.0049
WFSVIMLCYILP | – | – | 0.253 ± 0.004 | 0.204 ± 0.023 | 0.22 ± 0.028 | 0.23 ± 0.042 | 0.3397 ± 0.0018 | 0.233 ± 0.027 | 0.198 ± 0.014 | 0.248 ± 0.036
WFVCSGVYGSVM | – | – | 0.692 ± 0.013 | 0.676 ± 0.0086 | 0.749 ± 0.02 | 0.682 ± 0.094 | 0.758 ± 0.035 | 0.6528 ± 0.0019 | 0.638 ± 0.026 | 0.721 ± 0.0092
WFVFVFCSPRSS | – | – | 0.5 ± 0.029 | 0.547 ± 0.048 | 0.618 ± 0.0098 | 0.4 ± 0.03 | 0.65 ± 0.027 | 0.394 ± 0.012 | 0.406 ± 0.017 | 0.568 ± 0.0097
WGFSVRFVLSVF | – | – | 0.12 ± 0.017 | 0.0576 ± 0.004 | 0.145 ± 0.03 | 0.124 ± 0.029 | 0.2407 ± 0.0016 | 0.05 ± 0.014 | 0.0463 ± 0.02 | 0.115 ± 0.024
WGVVMVCVVFGL | – | – | 0.3249 ± 0.0027 | 0.116 ± 0.019 | 0.247 ± 0.016 | 0.186 ± 0.028 | 0.312 ± 0.0044 | 0.159 ± 0.011 | 0.183 ± 0.019 | 0.252 ± 0.027
WHFMVFFCFCVD | – | – | 0.381 ± 0.024 | 0.295 ± 0.04 | 0.399 ± 0.061 | 0.317 ± 0.036 | 0.406 ± 0.0098 | 0.28 ± 0.0047 | 0.277 ± 0.023 | 0.355 ± 0.028
WILPASFCVVFL | – | – | 0.427 ± 0.027 | 0.502 ± 0.012 | 0.5334 ± 0.0024 | 0.385 ± 0.021 | 0.5556 ± 0.005 | 0.425 ± 0.019 | 0.397 ± 0.016 | 0.528 ± 0.032
WLALSFFSFFFC | – | – | 0.588 ± 0.19 | 0.654 ± 0.014 | 0.7221 ± 0.00075 | 0.588 ± 0.025 | 0.6825 ± 0.0042 | 0.577 ± 0.047 | 0.57 ± 0.026 | 0.66 ± 0.02
